Target: calmodulin (CaM) (UniProt P62157 1-149)
Assay: cell-based or functional assay

fold induction of the catalytic activity (MLC phosphorylation, in vitro kinase assay) upon addition of Ca2+/CaM against EGTA: 5.7 fold
B1: FLAG-DAPK2 WT (enzyme)
chain: MFQASMRSPNMEPFKQQKVEDFYDIGEELGSGQFAIVKKCREKSTGLEYAAKFIKKRQSRASRRGVSREEIEREVSILRQVLHHNVITLHDVYENRTDVVLILELVSGGELFDFLAQKESLSEEEATSFIKQILDGVNYLHTKKIAHFDLKPENIMLLDKNIPIPHIKLIDFGLAHEIEDGVEFKNIFGTPEFVAPEIVNYEPLGLEADMWSIGVITYILLSGASPFLGDTKQETLANITAVSYDFDEEFFSQTSELAKDFIRKLLVKETRKRLTIQEALRHPWITPVDNQQAMVRRESVVNLENFRKQYVRRRWKLSFSIVSLCNHLTRSLMKKVHLRPDEDLRNCESDTEEDIARRKALHPRRRSSTS

Reference: paper PMC5931534, “Non-canonical activation of DAPK2 by AMPK constitutes a new pathway linking metabolic stress to autophagy” (Nature Communications, 2018)
